Drawing on patent US20090005257A1, this text covers Refoldability on phage (protein A binding retained after heating) and mean % refolding (pA-ELISA) for four substances.

Assay [1] has as its target protein A (UniProt P38507). The assay is described as follows: phage ELISA on protein A, heated 80 C against unheated, three data points.
Assay [2] has as its target protein A (UniProt P38507). The assay is described as follows: phage ELISA screen on protein A, heated 80 C against unheated (Section 4); mean of clones with this mutation. In general terms: In an ELISA, binding on a coated surface is turned into a signal by an enzyme label.

Chain of DP47 F100nV (VH): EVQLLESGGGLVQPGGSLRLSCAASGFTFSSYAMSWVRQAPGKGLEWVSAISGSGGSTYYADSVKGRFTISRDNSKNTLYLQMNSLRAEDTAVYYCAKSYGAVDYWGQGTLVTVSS

In turn, DP47 F100nV/Y102S registered a Refoldability on phage (protein A binding retained after heating) with protein A [1] of 2%.
In the assay with protein A [2], DP47-F27C gave a mean % refolding (pA-ELISA) of 56%.
On to DP47 F100nV, for which the Refoldability on phage (protein A binding retained after heating) in the assay with protein A [1] is 2%.
The substance DP47-G54P displayed a mean % refolding (pA-ELISA) with protein A [2] of 28%.
